This is an account of results in patent US20080118919A1.

In this test the target is B42 activation domain-EE34 prey fusion protein (yeast, pJG4-5). As to the kind of experiment: cell-based or functional assay.

On to “λ cI-RR34 bait fusion protein (from UniProt P03034 1-237)”, for which the β-glucuronidase reporter activity with MU-gluc substrate, combination 6 relative to combination 5, yeast two-hybrid (fold higher than combination 5) is 10.
